Measured values from US20200399381A1 (I MAB BIOPHARMA US, published 2020).
Where a chain is given by its changes, count along the chain named. Blank lines part the entries; values can stand above or below the binder they belong to.

What was measured:
[1] = target: T1, human IFNAR-1 protein (form not stated) (human, UniProt P17181 28-436, limits assumed); assay: affinity ranking of expressed humanized 8G11 IgGs (method not named)
T1 construct: bispecific ELISA
T1 sequence (looked up): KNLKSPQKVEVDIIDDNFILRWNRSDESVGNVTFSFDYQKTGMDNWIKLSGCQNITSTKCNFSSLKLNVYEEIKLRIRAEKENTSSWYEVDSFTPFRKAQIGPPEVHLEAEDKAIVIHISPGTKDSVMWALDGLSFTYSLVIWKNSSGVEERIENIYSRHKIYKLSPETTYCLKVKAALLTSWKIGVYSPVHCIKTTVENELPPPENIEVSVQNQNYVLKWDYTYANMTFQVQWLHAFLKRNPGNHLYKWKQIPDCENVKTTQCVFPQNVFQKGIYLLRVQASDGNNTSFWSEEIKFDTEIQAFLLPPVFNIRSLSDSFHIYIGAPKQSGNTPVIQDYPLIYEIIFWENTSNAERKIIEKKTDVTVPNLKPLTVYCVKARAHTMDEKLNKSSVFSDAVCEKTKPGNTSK

[2] = target: T2, recombinant His-tagged human IFNAR-1-ECD protein (human, UniProt P17181 28-436); assay: ELISA, coated His-tagged IFNAR-1
T2 construct: extracellular domain; the Biacore text says His-tagged human IFNAR-1-ECD; also called His-tagged IFNAR-1; hIFNAR-1 protein; not shown: His tag
T2 sequence (looked up): T1 sequence (looked up)
Method: This example tested the binding properties of the anti-IFNAR-1 mouse antibodies to the human IFNAR-1 proteins by ELISA assay. In short, His-tagged IFNAR-1 was coated at 0.5 μg/ml overnight and then blocked by 5% BSA in PBS. Serial diluted anti-IFNAR-1 antibodies were incubated with the coated antigen for 1 h at room temperature. The resulting plates were washed with PBS/T and incubated with goat anti-mouse IgG-HRP for 1 h at room temperature. The plates were developed with TMB substrate and analyzed by spectrophotometer at OD 450-630 nm.

human IFNAR-1 on cells = target: T3, human IFNAR-1 on cells (human, UniProt P17181 28-557); assay: cell-based or functional assay
T3 sequence (looked up): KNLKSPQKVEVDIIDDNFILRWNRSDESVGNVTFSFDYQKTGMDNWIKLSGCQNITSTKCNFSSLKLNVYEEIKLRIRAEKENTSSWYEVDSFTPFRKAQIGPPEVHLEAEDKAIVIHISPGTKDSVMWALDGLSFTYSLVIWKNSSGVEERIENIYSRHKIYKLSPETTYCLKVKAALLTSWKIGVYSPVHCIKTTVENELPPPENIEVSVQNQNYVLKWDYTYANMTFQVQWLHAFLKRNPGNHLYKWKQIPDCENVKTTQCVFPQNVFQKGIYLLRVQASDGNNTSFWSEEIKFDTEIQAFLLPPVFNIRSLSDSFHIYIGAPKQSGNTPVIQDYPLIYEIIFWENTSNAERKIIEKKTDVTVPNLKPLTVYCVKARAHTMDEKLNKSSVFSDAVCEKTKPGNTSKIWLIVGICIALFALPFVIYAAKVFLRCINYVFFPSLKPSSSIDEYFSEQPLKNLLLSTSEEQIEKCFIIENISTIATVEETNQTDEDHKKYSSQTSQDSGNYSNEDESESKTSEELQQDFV

Kd [1]: 389 pM | koff [1]: 0.000111 s⁻¹ | kon [1]: 284000 M⁻¹ s⁻¹
B1: 8G11 humanized VH3 + VL2 (antibody, V domains shown)
VH: QVQLVQSGAEVVKPGASVKVSCKGSGFNIKDYYMHWVKQAPGQGLEWIGRIDPEDAETKYAPKFQGRVTITADTSTSTVYLELSSLRSEDTAVYYCARGGNFYVMDYWGQGTLVTVSS
VL: DIQLTQSPSFLSTSVGDRVTITCKASQNVGTNVVWYQQKPGKSPKVLIYSASYRVSGVPSRFSGSGSGTEFTLIISSLQPEDFATYYCQQKNNYPYTFGQGTKLEIK
notes: Humanized IgG expressed in HEK293; also called VH3 + VL2 (8G11)

Kd [1]: 332 pM | koff [1]: 9.69e-05 s⁻¹ | kon [1]: 292000 M⁻¹ s⁻¹
B2: 8G11 humanized VH4 + VL2 (antibody, V domains shown)
VH: B1 VH with V20L, V68A, V79A
VL: B1 VL
notes: Humanized IgG expressed in HEK293; also called VH4 + VL2 (8G11)

Kd [1]: 401 pM | koff [1]: 0.000113 s⁻¹ | kon [1]: 281000 M⁻¹ s⁻¹
B3: 8G11 humanized VH3 + VL4 (antibody, V domains shown)
VH: B1 VH
VL: B1 VL with L4M, I21V, L78V, Y87F
notes: Humanized IgG expressed in HEK293; also called VH3 + VL4 (8G11)

Kd [1]: 865 pM | koff [1]: 0.0002 s⁻¹ | kon [1]: 231000 M⁻¹ s⁻¹
B4: 8G11 humanized VH1 + VL3 (antibody, V domains shown)
VH: B1 VH with V12K, G24A, K38R, I48M, I70M, A72R, L81M
VL: B1 VL with L78V, Y87F
notes: Humanized IgG expressed in HEK293; also called VH1 + VL3 (8G11)

Kd [1]: 388 pM | koff [1]: 0.000102 s⁻¹ | kon [1]: 262000 M⁻¹ s⁻¹
B5: 8G11 humanized VH2 + VL4 (antibody, V domains shown)
VH: B1 VH with K38R, I70M, L81M
VL: B1 VL with L4M, I21V, L78V, Y87F
notes: Humanized IgG expressed in HEK293; also called VH2 + VL4 (8G11)

Kd [1]: 489 pM | koff [1]: 9.94e-05 s⁻¹ | kon [1]: 203000 M⁻¹ s⁻¹
B6: 8G11 humanized VH4 + VL1 (antibody, V domains shown)
VH: B1 VH with V20L, V68A, V79A
VL: B1 VL with T13A, S43A, V46L, I74T
notes: Humanized IgG expressed in HEK293; also called VH4 + VL1 (8G11)

Kd [1]: 413 pM | koff [1]: 0.000106 s⁻¹ | kon [1]: 256000 M⁻¹ s⁻¹
B7: 8G11 humanized VH3 + VL1 (antibody, V domains shown)
VH: B1 VH
VL: B1 VL with T13A, S43A, V46L, I74T
notes: Humanized IgG expressed in HEK293; also called VH3 + VL1 (8G11)

Kd [1]: 836 pM | koff [1]: 0.000141 s⁻¹ | kon [1]: 169000 M⁻¹ s⁻¹
B8: 8G11 humanized VH1 + VL4 (antibody, V domains shown)
VH: B1 VH with V12K, G24A, K38R, I48M, I70M, A72R, L81M
VL: B1 VL with L4M, I21V, L78V, Y87F
notes: Humanized IgG expressed in HEK293; also called VH1 + VL4 (8G11)

Kd [1]: 364 pM | koff [1]: 9.65e-05 s⁻¹ | kon [1]: 265000 M⁻¹ s⁻¹
B9: 8G11 humanized VH2 + VL3 (antibody, V domains shown)
VH: B1 VH with K38R, I70M, L81M
VL: B1 VL with L78V, Y87F
notes: Humanized IgG expressed in HEK293; also called VH2 + VL3 (8G11)

Kd [1]: 372 pM | koff [1]: 0.000105 s⁻¹ | kon [1]: 283000 M⁻¹ s⁻¹
B10: 8G11 humanized VH4 + VL4 (antibody, V domains shown)
VH: B1 VH with V20L, V68A, V79A
VL: B1 VL with L4M, I21V, L78V, Y87F
notes: Humanized IgG expressed in HEK293; also called VH4 + VL4 (8G11)

EC50 [2]: 55 pM | EC50 (nM), inhibition of IFNα2b-induced SEAP reporter in HEK-Blue IFNα/β cells (human IFNAR-1 on cells): 5.07 nM
B11: 260H8 (antibody, V domains shown)
VH: EVQLQESGPGLAKPSQTLSLTCSVTGYSITSDYWNWIRKFPGNKLEYMGYISYSGSIYYNPSLKSRISITRDTSKNQYYLQLNSVTNEDTATYYCARSGGMYYFDYWGQGTTLTVSS
VL: DIQMTQSPASLSASVGETVTITCRASGNIHNYLAWYQQKQGKSPQLLVYNAKTLEDGVPSRFSGSGSGTQYSLKINSLQPEDFGSYYCQHFWSIPPTFGSGTKLEIK
notes: Hybridoma-derived monoclonal antibody

EC50 [2]: 476 pM | EC50 (nM), inhibition of IFNα2b-induced SEAP reporter in HEK-Blue IFNα/β cells (human IFNAR-1 on cells): 6.71 nM
B12: 269A7 (antibody, V domains shown)
VH: B11 VH with S56T
VL: B11 VL
notes: as for B11

EC50 [2]: 88 pM | EC50 (nM), inhibition of IFNα2b-induced SEAP reporter in HEK-Blue IFNα/β cells (human IFNAR-1 on cells): 3.87 nM
B13: 268E9 (antibody, V domains shown)
VH: B11 VH with D72A
VL: B11 VL
notes: as for B11

EC50 [2]: 97 pM | EC50 (nM), inhibition of IFNα2b-induced SEAP reporter in HEK-Blue IFNα/β cells (human IFNAR-1 on cells): 1.28 nM
B14: 293H10 (antibody, V domains shown)
VH: B11 VH with S56N, I57T, Y58D, I67F, Y78F, N87T, G99E, Y103F
VL: B11 VL with T20S, Q37H, E55A, I94T
notes: as for B11
